This test concerns the target T1, FL-5Mal conjugated NFG1CG4-hFasLECD (human, UniProt P48023 139-281, N184Q | N250Q, Fluorescein-5-Maleimide conjugated to the unpaired cysteine in the N-terminal tag sequence (estimated 2.5 per trimer, approximately 83 % of the cysteines)).
T1 construct: linker of the N-terminal tag, between FLAG (DYKDDDDK) and residue 139 of hFasLECD; printed in three-letter code; its Cys is the conjugation site; human Fas ligand (CD178) extracellular domain with residues 103-138 deleted: hFasLECD (139-281, N184Q, N250Q); It calls the protein a trimer in words only; also called Fluorescein-5-Maleimide conjugated human Fas ligand extracellular domain derivative; …
T1 sequence: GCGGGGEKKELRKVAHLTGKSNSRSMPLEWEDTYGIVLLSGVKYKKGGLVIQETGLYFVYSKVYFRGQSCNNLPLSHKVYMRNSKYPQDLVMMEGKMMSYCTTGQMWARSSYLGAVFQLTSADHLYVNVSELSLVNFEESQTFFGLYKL
The test can be described thus: SEC; mixtures of hFasRECD-Fc and the conjugate in several amount ratios on Superdex 200 10/300 GL; 50 mM Tris-hydrochloride, 150 mM sodium chloride, pH 7.5; 0.5 ml/min; absorbance at 280 and 495 nm. The note with it: both partners purified. (In general: SEC sorts molecules by how far they enter the pores of the column.)

B1: human Fas receptor extracellular domain—human IgG1 Fc domain fusion protein (Fc fusion, UniProt P25445 26-173, looked up)
chain: QVTDINSKGLELRKTVTTVETQNLEGLHHDGQFCHKPCPPGERKARDCTVNGDEPDCVPCQEGKEYTDKAHFSSKCRRCRLCDEGHGLEVEINCTRTQNTKCRCKPNFFCNSTVCEHCDPCTKCEHGIIKECTLTSNTKCKEEGSRSN
notes: human Fas receptor (CD95) extracellular domain; also called hFasRECD-Fc; source: baculovirus—Bombyx mori larvae expression system, purified (Hi-Trap Protein G HP, Mono Q 10/10; main peak also by Superdex 200)
For B1, the binding result is reported as “binds”.
